# According to paper PMC2746994 (Biochemistry, 2009):
# B1: GB1Borealin 13-92 (domain or fragment)
# chain: TNSLRRRKLASFLKDFDREVEIRIKQIESDRQNLLKEVDNLYNIEILRLPKALREMNWLDYFALGGNKQALEEAATADLD
# B2: INCENP 1-69, His6-tagged (domain or fragment)
# chain: MGTTAPGPIHLLELCDQKLMEFLCNMDNKDLVWLEEIQEEAERMFTREFSKEPELMPKTPSQKNRRKKR
# Experiments:
# [1] = molecular target: Survivin, non-tagged (human, UniProt O15392 1-142); test: SEC
# [2] = molecular target: Survivin-GB1Borealin f.l. complex (human, UniProt O15392;Q53HL2); test: ITC
# Sequence of Survivin-GB1Borealin f.l. complex (O15392 whole entry, chain 1 of 2): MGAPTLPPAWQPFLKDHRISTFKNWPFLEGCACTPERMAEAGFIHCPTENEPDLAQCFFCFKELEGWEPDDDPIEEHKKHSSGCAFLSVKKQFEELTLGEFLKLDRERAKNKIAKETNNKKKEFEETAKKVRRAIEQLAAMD
# Sequence of Survivin-GB1Borealin f.l. complex (Q53HL2 whole entry, chain 2 of 2): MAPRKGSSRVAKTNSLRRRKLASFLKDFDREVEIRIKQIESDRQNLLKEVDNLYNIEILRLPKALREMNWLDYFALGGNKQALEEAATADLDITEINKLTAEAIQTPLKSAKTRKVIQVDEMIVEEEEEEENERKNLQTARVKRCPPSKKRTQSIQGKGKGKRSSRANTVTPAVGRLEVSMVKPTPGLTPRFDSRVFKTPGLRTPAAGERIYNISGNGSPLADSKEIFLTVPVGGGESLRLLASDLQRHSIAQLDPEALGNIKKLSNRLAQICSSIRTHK
# Sequence of Survivin, non-tagged (O15392 whole entry): as the sequence (O15392 whole entry, chain 1 of 2) above
Binder,binding result [1],Kd [2] [nM],stoichiometry N [2]
B1,binds,,
B2,,27,~0.75
